2 substances from article PMC3358304 can be followed below.

The series in a line: immunoblot of total Akt, MCF-7. The note with it: glycan lost; control: wild type.

For Akt (AKT1): T305Y, the expression_or_secretion result is on record as “no change”.

For the substance Akt (AKT1): T312Y, the expression_or_secretion entry is given as “no change”.
